“And” between values parts separate entries of the source, which are not always exact repeats. Equal entries are not always repeated.

One test concerns the target T1, FcRn.
T1 construct: also called neonatal Fc receptor
Put plainly: SPR (BIAcore) at pH 6.0. (In general: SPR reads the build-up and loss of mass on a sensor chip optically.)

The target of the next test is T2, soluble human RGMa (human, UniProt Q96B86 48-422, limits assumed).
T2 construct: Soluble antigen in BIAcore; also called huRGMa; repulsive guidance molecule A
T2 sequence (looked up): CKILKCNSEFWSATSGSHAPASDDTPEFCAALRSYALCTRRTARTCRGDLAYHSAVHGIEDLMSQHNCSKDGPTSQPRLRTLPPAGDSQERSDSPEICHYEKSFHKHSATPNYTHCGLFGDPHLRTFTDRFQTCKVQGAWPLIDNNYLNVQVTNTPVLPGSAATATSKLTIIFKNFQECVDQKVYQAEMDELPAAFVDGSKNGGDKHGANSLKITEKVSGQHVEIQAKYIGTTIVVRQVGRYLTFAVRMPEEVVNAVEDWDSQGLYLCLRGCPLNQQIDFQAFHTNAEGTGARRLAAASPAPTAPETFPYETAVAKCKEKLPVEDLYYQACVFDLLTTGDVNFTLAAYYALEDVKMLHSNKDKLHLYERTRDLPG
Nature of the test: SPR; method not named in Example 2.

The target of the next test is T3, soluble human RGMc (human, UniProt Q6ZVN8 36-400).
T3 construct: also called huRGMc; soluble hRGMc
T3 sequence: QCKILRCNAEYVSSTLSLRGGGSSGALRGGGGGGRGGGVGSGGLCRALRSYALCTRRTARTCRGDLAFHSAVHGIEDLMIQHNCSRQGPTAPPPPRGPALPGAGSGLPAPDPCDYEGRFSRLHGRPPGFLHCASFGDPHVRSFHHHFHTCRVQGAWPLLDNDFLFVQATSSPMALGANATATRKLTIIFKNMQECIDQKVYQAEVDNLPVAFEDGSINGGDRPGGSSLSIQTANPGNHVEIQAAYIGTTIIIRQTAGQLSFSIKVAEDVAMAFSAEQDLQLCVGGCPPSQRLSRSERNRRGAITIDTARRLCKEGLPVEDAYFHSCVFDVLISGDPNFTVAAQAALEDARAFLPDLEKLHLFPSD
Nature of the test: SPR; method not named in Example 2.

T1 sequence (P55899 24-297, chain 1 of 2): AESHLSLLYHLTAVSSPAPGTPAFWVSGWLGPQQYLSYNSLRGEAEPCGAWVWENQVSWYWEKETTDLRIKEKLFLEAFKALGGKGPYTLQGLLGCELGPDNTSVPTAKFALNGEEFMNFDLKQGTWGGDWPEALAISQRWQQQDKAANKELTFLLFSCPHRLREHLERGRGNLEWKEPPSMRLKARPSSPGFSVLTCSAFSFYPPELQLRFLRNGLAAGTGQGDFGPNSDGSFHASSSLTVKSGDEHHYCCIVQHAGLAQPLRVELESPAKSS
T1 sequence (P61769 21-119, chain 2 of 2, further chain): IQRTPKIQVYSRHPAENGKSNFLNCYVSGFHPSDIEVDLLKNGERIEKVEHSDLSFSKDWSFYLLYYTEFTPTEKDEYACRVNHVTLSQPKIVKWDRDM

B1: hHA-008-QL (antibody, human IgG1, kappa, L234A L235A)
heavy: EVQLVESGGGLVQPGGSLRLSCAASGFTFSNYGMNWVRQAPGKGLEWIGMIYYDSSEKHYADSVKGRFTISRDNSKNTLYLQMNSLRAEDTAVYYCAKGTTPDYWGQGTMVTVSSASTKGPSVFPLAPSSKSTSGGTAALGCLVKDYFPEPVTVSWNSGALTSGVHTFPAVLQSSGLYSLSSVVTVPSSSLGTQTYICNVNHKPSNTKVDKKVEPKSCDKTHTCPPCPAPEAAGGPSVFLFPPKPKDQLMISRTPEVTCVVVDVSHEDPEVKFNWYVDGVEVHNAKTKPREEQYNSTYRVVSVLTVLHQDWLNGKEYKCKVSNKALPAPIEKTISKAKGQPREPQVYTLPPSREEMTKNQVSLTCLVKGFYPSDIAVEWESNGQPENNYKTTPPVLDSDGSFFLYSKLTVDKSRWQQGNVFSCSVLHEALHNHYTQKSLSLSPGK
light: DVVLTQSPLSLPVTLGQPASISCRSSQSLEESDGYTFLHWFQQRPGQSPRLLIYEVSTRFSGVPDRFSGSGSGTDFTLKISRVEAEDVGVYYCFQATHDPLTFGQGTKLEIKRTVAAPSVFIFPPSDEQLKSGTASVVCLLNNFYPREAKVQWKVDNALQSGNSQESVTEQDSKDSTYSLSSTLTLSKADYEKHKVYACEVTHQGLSSPVTKSFNRGEC
notes: hHA-008 with T250Q and M428L (QL) in the Fc besides L234A, L235A; kappa; also called hHA-008-QL (hIgG1mut(LALA)/QL/k)
Usually Kd stands for the constant that tells how readily two partners part at equilibrium. Usually koff stands for a measure of how fast the partners let go of each other. For orientation: kon means the rate constant with which the complex forms. With B1, the Kd in the test with FcRn was 900 nM and 882 nM; in the test with soluble human RGMa, 0.077 nM; with soluble human RGMc it was 0.12 nM. The koff in the test with soluble human RGMa worked out at 3.3e-05 s⁻¹; with soluble human RGMc, 0.00033 s⁻¹. In addition, the kon in the test with soluble human RGMa is 430000 M⁻¹ s⁻¹; in the test with soluble human RGMc it was 2.7e+06 M⁻¹ s⁻¹.

The record behind these values is US20240417458A1 (DISC MEDICINE, published 2024).
